Measurements as given in paper doi:10.1101/2023.04.03.535218, “Distributable, Metabolic PET Reporting of Tuberculosis” (bioRxiv, 2023).

Experiments:
continuous 1H NMR assay = substrate: O=P(O)(O)OC[C@H]1O[C@H](O[C@H]2O[C@H](CO)[C@@H](O)[C@H](O)[C@H]2O)[C@H](O)[C@@H](O)[C@@H]1O; assay: continuous 1H NMR assay; type: biochemical, Escherichia coli; conditions: 37 °C
Excerpt: continuous 1H NMR assay on OtsB

[1] = substrate: O=P(O)(O)OC[C@H]1O[C@H](O[C@H]2O[C@H](CO)[C@@H](O)[C@H](O)[C@H]2O)[C@H](O)[C@@H](O)[C@@H]1O; assay: table note: endpoint HPLC; Methods: malachite green assay; type: biochemical, Escherichia coli; conditions: method note of the table (HPLC, fixed Glc, 70 °C) does not fit this enzyme
Excerpt: table note: endpoint HPLC; Methods: malachite green assay on OtsB^Sf

Row | Protein | Km (continuous 1H NMR assay) [mM] | kcat (continuous 1H NMR assay) [s⁻¹] | kcat/Km (continuous 1H NMR assay) [M⁻¹ s⁻¹] | Km [1] [mM] | kcat [1] [s⁻¹] | kcat/Km [1] [M⁻¹ s⁻¹]
1 | OtsB (Escherichia coli K-12) (protein, expressed in E. coli) MTEPLTETPELSAKYAWFFDLDGTLAEIKPHPDQVVVPDNILQGLQLLATASDGALALISGRSMVELDALAKPYRFPLAGVHGAERRDINGKTHIVHLPDAIARDISVQLHTVIAQYPGAELEAKGMAFALHYRQAPQHEDALMTLAQRITQIWPQMALQQGKCVVEIKPRGTSKGEAIAAFMQEAPFIGRTPVFLGDDLTDESGFAVVNRLGGMSVKIGTGATQASWRLAGVPDVWSWLEMITTALQQKRENNRSDDYESFSRSI | 3.6 ± 0.8 | 286 ± 34 | 79000 |  |  | 
2 | OtsB^Sf (Escherichia coli K-12) (protein, purified on Ni-NTA) MTEPLTETPELSAKYAWFFDLDGTLAEIKPHPDQVVVPDNILQGLQLLATASDGALALISGRSMVELDALAKPYRFPLAGVHGAERRDINGKTHIVHLPDAIARDISVQLHTVIAQYPGAELEAKGMAFALHYRQAPQHEDALMTLAQRITQIWPQMALQQGKCVVEIKPRGTSKGEAIAAFMQEAPFIGRTPVFLGDDLTDESGFAVVNRLGGMSVKIGTGATQASWRLAGVPDVWSWLEMITTALQQKRENNRSDDYESFSRSI |  |  |  | 2.8 ± 0.7 | 740 ± 96 | 264000
